B1: FLAG-tagged full-length human TSC1 (natural protein, UniProt Q92574-1 1-1164, looked up)
chain: MAQQANVGELLAMLDSPMLGVRDDVTAVFKENLNSDRGPMLVNTLVDYYLETSSQPALHILTTLQEPHDKHLLDRINEYVGKAATRLSILSLLGHVIRLQPSWKHKLSQAPLLPSLLKCLKMDTDVVVLTTGVLVLITMLPMIPQSGKQHLLDFFDIFGRLSSWCLKKPGHVAEVYLVHLHASVYALFHRLYGMYPCNFVSFLRSHYSMKENLETFEEVVKPMMEHVRIHPELVTGSKDHELDPRRWKRLETHDVVIECAKISLDPTEASYEDGYSVSHQISARFPHRSADVTTSPYADTQNSYGCATSTPYSTSRLMLLNMPGQLPQTLSSPSTRLITEPPQATLWSPSMVCGMTTPPTSPGNVPPDLSHPYSKVFGTTAGGKGTPLGTPATSPPPAPLCHSDDYVHISLPQATVTPPRKEERMDSARPCLHRQHHLLNDRGSEEPPGSKGSVTLSDLPGFLGDLASEEDSIEKDKEEAAISRELSEITTAEAEPVVPRGGFDSPFYRDSLPGSQRKTHSAASSSQGASVNPEPLHSSLDKLGPDTPKQAFTPIDLPCGSADESPAGDRECQTSLETSIFTPSPCKIPPPTRVGFGSGQPPPYDHLFEVALPKTAHHFVIRKTEELLKKAKGNTEEDGVPSTSPMEVLDRLIQQGADAHSKELNKLPLPSKSVDWTHFGGSPPSDEIRTLRDQLLLLHNQLLYERFKRQQHALRNRRLLRKVIKAAALEEHNAAMKDQLKLQEKDIQMWKVSLQKEQARYNQLQEQRDTMVTKLHSQIRQLQHDREEFYNQSQELQTKLEDCRNMIAELRIELKKANNKVCHTELLLSQVSQKLSNSESVQQQMEFLNRQLLVLGEVNELYLEQLQNKHSDTTKEVEMMKAAYRKELEKNRSHVLQQTQRLDTSQKRILELESHLAKKDHLLLEQKKYLEDVKLQARGQLQAAESRYEAQKRITQVFELEILDLYGRLEKDGLLKKLEEEKAEAAEAAEERLDCCNDGCSDSMVGHNEEASGHNGETKTPRPSSARGSSGSRGGGGSSSSSSELSTPEKPPHQRAGPFSSRWETTMGEASASIPTTVGSLPSSKSFLGMKARELFRNKSESQCDEDGMTSSLSESLKTELGKDLGVEAKIPLNLDGPHPSPPTPDSVGQLHIMDYNETHHEHS
notes: human TSC1, full length, 1164 amino acids, UniProtKB/Swiss-Prot Q92574-1; Two copies stand in the TSCC; also called hamartin
B2: FLAG-tagged full-length human TSC2 (natural protein)
chain: not shown
notes: human TSC2, full length, 1807 amino acids, UniProtKB/Swiss-Prot P49815-1; Could not be purified in the absence of TSC1; two copies stand in the TSCC; also called tuberin
B3: FLAG-tagged human TBC1D7 (natural protein, UniProt Q9P0N9 1-293, looked up)
chain: MTEDSQRNFRSVYYEKVGFRGVEEKKSLEILLKDDRLDTEKLCTFSQRFPLPSMYRALVWKVLLGILPPHHESHAKVMMYRKEQYLDVLHALKVVRFVSDATPQAEVYLRMYQLESGKLPRSPSFPLEPDDEVFLAIAKAMEEMVEDSVDCYWITRRFVNQLNTKYRDSLPQLPKAFEQYLNLEDGRLLTHLRMCSAAPKLPYDLWFKRCFAGCLPESSLQRVWDKVVSGSCKILVFVAVEILLTFKIKVMALNSAEKITKFLENIPQDSSDAIVSKAIDLWHKHCGTPVHSS
notes: human TBC1D7, 293 amino acids, GenBank AAH07054; part of the FL TSC1-TSC2-TBC1D7 (TSCCFL) plasmids; One copy stands in the TSCC
B4: TSC1(Δ400-600) (natural protein, human, UniProt Q92574-1 1-1164, looked up)
chain: MAQQANVGELLAMLDSPMLGVRDDVTAVFKENLNSDRGPMLVNTLVDYYLETSSQPALHILTTLQEPHDKHLLDRINEYVGKAATRLSILSLLGHVIRLQPSWKHKLSQAPLLPSLLKCLKMDTDVVVLTTGVLVLITMLPMIPQSGKQHLLDFFDIFGRLSSWCLKKPGHVAEVYLVHLHASVYALFHRLYGMYPCNFVSFLRSHYSMKENLETFEEVVKPMMEHVRIHPELVTGSKDHELDPRRWKRLETHDVVIECAKISLDPTEASYEDGYSVSHQISARFPHRSADVTTSPYADTQNSYGCATSTPYSTSRLMLLNMPGQLPQTLSSPSTRLITEPPQATLWSPSMVCGMTTPPTSPGNVPPDLSHPYSKVFGTTAGGKGTPLGTPATSPPPAPPPPYDHLFEVALPKTAHHFVIRKTEELLKKAKGNTEEDGVPSTSPMEVLDRLIQQGADAHSKELNKLPLPSKSVDWTHFGGSPPSDEIRTLRDQLLLLHNQLLYERFKRQQHALRNRRLLRKVIKAAALEEHNAAMKDQLKLQEKDIQMWKVSLQKEQARYNQLQEQRDTMVTKLHSQIRQLQHDREEFYNQSQELQTKLEDCRNMIAELRIELKKANNKVCHTELLLSQVSQKLSNSESVQQQMEFLNRQLLVLGEVNELYLEQLQNKHSDTTKEVEMMKAAYRKELEKNRSHVLQQTQRLDTSQKRILELESHLAKKDHLLLEQKKYLEDVKLQARGQLQAAESRYEAQKRITQVFELEILDLYGRLEKDGLLKKLEEEKAEAAEAAEERLDCCNDGCSDSMVGHNEEASGHNGETKTPRPSSARGSSGSRGGGGSSSSSSELSTPEKPPHQRAGPFSSRWETTMGEASASIPTTVGSLPSSKSFLGMKARELFRNKSESQCDEDGMTSSLSESLKTELGKDLGVEAKIPLNLDGPHPSPPTPDSVGQLHIMDYNETHHEHS
notes: human TSC1 (1164 amino acids, Q92574-1) with an internal deletion of residues 400-600; also called TSC1 internal deletion construct; TSC1 of TSCC1Δ

How the values were obtained:
[1] = molecular target: B2; experiment: cryo-EM structure; single-particle cryo-EM of purified TSCCFL at 0.1-0.2 mg/mL on graphene oxide; 25 mM K-HEPES pH 7.6, 175 mM KCl or 150 mM LiCl, 1 mM TCEP; body 4.6 Å, pincer 8.1 Å, tail 8.2 Å; conditions: both partners purified
[2] = molecular target: the molecule itself; experiment: SEC-MALS; TSCC1Δ (TSC1(Δ400-600)-TSC2-TBC1D7) on Superose 6 10/300; 25 mM K-HEPES pH 7.6, 250 mM KCl, 0.5 mM EDTA, 1 mM TCEP; room temperature
[3] = molecular target: B1; experiment: cryo-EM structure; single-particle cryo-EM of purified TSCCFL at 0.1-0.2 mg/mL on graphene oxide; 25 mM K-HEPES pH 7.6, 175 mM KCl or 150 mM LiCl, 1 mM TCEP; body 4.6 Å, pincer 8.1 Å, tail 8.2 Å; conditions: both partners purified
TSC1(Δ400-600) = molecular target: B4; experiment: SEC-MALS; TSCC1Δ (TSC1(Δ400-600)-TSC2-TBC1D7) on Superose 6 10/300; 25 mM K-HEPES pH 7.6, 250 mM KCl, 0.5 mM EDTA, 1 mM TCEP; room temperature; conditions: both partners purified
[4] = molecular target: B2; experiment: as above; conditions: both partners purified

Binder: B1
binding result [1]: binds

Binder: B2
stoichiometry N [2]: ~2

Binder: B3
binding result [3]: binds
binding result (TSC1(Δ400-600)): binds

Binder: B4
stoichiometry N [2]: ~2
binding result [4]: binds
